Here are results for 2 molecules from paper PMC6212786 (Nucleic Acids Research, 2018).

The labels stand for the following.
T1: Full-length wild-type T4 DNA ligase (gp30) (bacteriophage T4, UniProt P00970 1-487)
T1 sequence (looked up): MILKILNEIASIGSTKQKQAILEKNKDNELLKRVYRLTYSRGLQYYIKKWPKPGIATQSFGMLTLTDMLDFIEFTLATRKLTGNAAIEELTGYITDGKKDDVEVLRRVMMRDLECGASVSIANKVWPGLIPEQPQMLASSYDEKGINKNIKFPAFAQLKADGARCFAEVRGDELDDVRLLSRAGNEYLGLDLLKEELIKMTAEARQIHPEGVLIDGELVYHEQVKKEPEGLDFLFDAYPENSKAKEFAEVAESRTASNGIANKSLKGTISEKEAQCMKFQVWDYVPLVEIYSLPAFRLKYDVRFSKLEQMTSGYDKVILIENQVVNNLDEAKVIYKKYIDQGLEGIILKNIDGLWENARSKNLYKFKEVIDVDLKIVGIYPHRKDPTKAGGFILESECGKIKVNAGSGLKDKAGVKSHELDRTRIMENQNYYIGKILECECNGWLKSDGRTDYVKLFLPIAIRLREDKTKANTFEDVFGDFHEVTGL

B1: T4 sliding clamp gp45, full length (trimer) (natural protein, bacteriophage T4, UniProt P04525 1-228, looked up)
chain: MKLSKDTTALLKNFATINSGIMLKSGQFIMTRAVNGTTYAEANISDVIDFDVAIYDLNGFLGILSLVNDDAEISQSEDGNIKIADARSTIFWPAADPSTVVAPNKPIPFPVASAVTEIKAEDLQQLLRVSRGLQIDTIAITVKEGKIVINGFNKVEDSALTRVKYSLTLGDYDGENTFNFIINMANMKMQPGNYKLLLWAKGKQGAAKFEGEHANYVVALEADSTHDF

Experiment [1] addresses T1, Full-length wild-type T4 DNA ligase …. Nature of the experiment: SEC. (In general: In gel filtration, larger molecules generally elute earlier.)
The target of experiment [2] is B1. As to the kind of experiment: ITC. (In general: Isothermal titration calorimetry measures the heat released or taken up as one component is titrated into another.)

Take B1: the binding result in experiment [1] is “binds”.

With KKEPEGLDFLFDA [T4 ligase loop peptide KKEPEGLDFLFDA], in experiment [2], the affinity, expressed as Kd, was 10.7 µM and the “stoichiometry N” value was determined as 3 peptides per gp45 trimer.

Broadly, the Kd is a measure of binding affinity in units of concentration. A lower Kd goes with higher affinity. In general, stoichiometry N refers to the number of molecules, sites or subunits per partner or assembly.
